Measured values taken from paper PMC9482650, “Quantitative fragmentomics allow affinity mapping of interactomes” (Nature Communications, 2022).

T1: DFNB31_2, Q9P202
T1 sequence (Q9P202 274-371, limits assumed, looked up): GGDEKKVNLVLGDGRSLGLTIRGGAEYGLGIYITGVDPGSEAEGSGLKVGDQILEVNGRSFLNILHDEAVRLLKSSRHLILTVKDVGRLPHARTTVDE

T2: DFNB31_3, Q9P202
T2 sequence (Q9P202 811-907, limits assumed, looked up): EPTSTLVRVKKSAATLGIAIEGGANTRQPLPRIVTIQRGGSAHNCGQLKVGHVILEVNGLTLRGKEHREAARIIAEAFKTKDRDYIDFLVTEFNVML

T3: DLG3_3, Q92796
T3 sequence (Q92796 374-475, limits assumed, looked up): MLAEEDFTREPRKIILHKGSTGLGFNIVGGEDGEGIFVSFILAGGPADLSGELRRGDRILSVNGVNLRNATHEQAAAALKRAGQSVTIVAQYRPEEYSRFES

T4: DVL3, Q92997
T4 sequence (Q92997 244-331, limits assumed, looked up): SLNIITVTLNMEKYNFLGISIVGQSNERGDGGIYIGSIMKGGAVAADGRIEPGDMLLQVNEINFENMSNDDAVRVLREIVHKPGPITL

T5: GRIP1_5, Q9Y3R0
T5 sequence (Q9Y3R0 568-668, limits assumed, looked up): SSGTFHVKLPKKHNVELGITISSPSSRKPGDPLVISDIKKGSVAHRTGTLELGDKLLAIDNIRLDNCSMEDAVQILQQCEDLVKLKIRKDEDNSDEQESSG

T6: GRIP1_7, Q9Y3R0
T6 sequence (Q9Y3R0 999-1096, limits assumed, looked up): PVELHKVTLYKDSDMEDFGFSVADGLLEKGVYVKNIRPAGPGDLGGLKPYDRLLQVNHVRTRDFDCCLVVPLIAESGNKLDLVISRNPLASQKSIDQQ

T7: LIN7C, Q9NUP9
T7 sequence (Q9NUP9 88-185, limits assumed, looked up): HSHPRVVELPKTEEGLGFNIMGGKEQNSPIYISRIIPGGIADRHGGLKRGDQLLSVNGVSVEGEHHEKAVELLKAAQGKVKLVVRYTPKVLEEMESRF

T8: LNX2_2, Q8N448
T8 sequence (Q8N448 334-432, limits assumed, looked up): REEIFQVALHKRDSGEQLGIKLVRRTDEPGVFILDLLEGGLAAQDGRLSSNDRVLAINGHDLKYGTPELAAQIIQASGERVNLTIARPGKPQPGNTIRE

T9: LNX2_3, Q8N448
T9 sequence (Q8N448 463-564, limits assumed, looked up): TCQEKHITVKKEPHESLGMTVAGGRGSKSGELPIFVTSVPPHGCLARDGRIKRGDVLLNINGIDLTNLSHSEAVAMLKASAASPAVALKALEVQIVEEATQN

T10: MPP2, Q14168
T10 sequence (Q14168 180-250, limits assumed, looked up): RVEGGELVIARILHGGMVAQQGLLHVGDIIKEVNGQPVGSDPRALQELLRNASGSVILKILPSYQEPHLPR

T11: NHERF3_1, Q5T2W1
T11 sequence (Q5T2W1 4-100, limits assumed, looked up): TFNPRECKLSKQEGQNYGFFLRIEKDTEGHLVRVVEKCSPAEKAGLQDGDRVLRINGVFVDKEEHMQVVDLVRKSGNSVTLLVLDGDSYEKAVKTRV

T12: PTPN13_1, Q12923
T12 sequence (Q12923 1088-1188, limits assumed, looked up): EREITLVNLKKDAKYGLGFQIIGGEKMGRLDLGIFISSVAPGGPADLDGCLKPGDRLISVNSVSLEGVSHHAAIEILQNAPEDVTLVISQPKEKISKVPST


Each binder was assayed against T1, DFNB31_2, Q9P202 (assay: holdup assay). Details: plain residues with an end cap or a label only (N-terminal biotin on a linker: ado-ado).
Design: key: below the threshold = too weak to quantify, mostly under pKd 3.1 to 4

Binder	pKd
VKRNSKETVV [MARCHF3, Q86UD3]	below the threshold

Each binder was assayed against T2, DFNB31_3, Q9P202 (assay: holdup assay). Details: plain residues with an end cap or a label only (N-terminal biotin on a linker: ado-ado).
Design: key: below the threshold = too weak to quantify, mostly under pKd 3.1 to 4

Binder	pKd
VKRNSKETVV [MARCHF3, Q86UD3]	3.92

Each binder was assayed against DLG1_1, Q12959 (assay: holdup assay). Details: plain residues with an end cap or a label only (N-terminal biotin on a linker: ado-ado).
Design: key: below the threshold = too weak to quantify, mostly under pKd 3.1 to 4

Binder	pKd
VKRNSKETVV [MARCHF3, Q86UD3]	5.48

These binders were tested against T3, DLG3_3, Q92796 (assay: holdup assay). Details: plain residues with an end cap or a label only (N-terminal biotin on a linker: ado-ado).
Design: key: below the threshold = too weak to quantify, mostly under pKd 3.1 to 4

Binder	pKd
VKRNSKETVV [MARCHF3, Q86UD3]	4.7

These binders were tested against T4, DVL3, Q92997 (assay: holdup assay). Details: plain residues with an end cap or a label only (N-terminal biotin on a linker: ado-ado).
Design: key: below the threshold = too weak to quantify, mostly under pKd 3.1 to 4

Binder	pKd
VKRNSKETVV [MARCHF3, Q86UD3]	below the threshold

Each binder was assayed against FRMPD3, Q5JV73 (assay: holdup assay). Details: plain residues with an end cap or a label only (N-terminal biotin on a linker: ado-ado).
Sequence of FRMPD3, Q5JV73 (Q5JV73 12-100): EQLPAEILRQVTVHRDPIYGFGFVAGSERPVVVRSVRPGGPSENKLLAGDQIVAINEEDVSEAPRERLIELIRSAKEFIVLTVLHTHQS
Design: key: below the threshold = too weak to quantify, mostly under pKd 3.1 to 4

Binder	pKd
VKRNSKETVV [MARCHF3, Q86UD3]	below the threshold

The binders below were run against T5, GRIP1_5, Q9Y3R0 (assay: holdup assay). Details: plain residues with an end cap or a label only (N-terminal biotin on a linker: ado-ado).
Design: key: below the threshold = too weak to quantify, mostly under pKd 3.1 to 4

Binder	pKd
VKRNSKETVV [MARCHF3, Q86UD3]	below the threshold

What follows are binders tested against T6, GRIP1_7, Q9Y3R0 (assay: holdup assay). Details: plain residues with an end cap or a label only (N-terminal biotin on a linker: ado-ado).
Design: key: below the threshold = too weak to quantify, mostly under pKd 3.1 to 4

Binder	pKd
VKRNSKETVV [MARCHF3, Q86UD3]	below the threshold

These binders were tested against GRIP2_6, Q9C0E4 (assay: holdup assay). Details: plain residues with an end cap or a label only (N-terminal biotin on a linker: ado-ado).
Sequence of GRIP2_6, Q9C0E4 (Q9C0E4 648-740): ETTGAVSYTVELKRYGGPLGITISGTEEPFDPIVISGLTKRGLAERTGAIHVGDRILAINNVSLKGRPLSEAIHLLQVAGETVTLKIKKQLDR
Design: key: below the threshold = too weak to quantify, mostly under pKd 3.1 to 4

Binder	pKd
VKRNSKETVV [MARCHF3, Q86UD3]	below the threshold

These binders were tested against IL16_3, Q14005 (assay: holdup assay). Details: plain residues with an end cap or a label only (N-terminal biotin on a linker: ado-ado).
Sequence of IL16_3, Q14005 (Q14005 1107-1207): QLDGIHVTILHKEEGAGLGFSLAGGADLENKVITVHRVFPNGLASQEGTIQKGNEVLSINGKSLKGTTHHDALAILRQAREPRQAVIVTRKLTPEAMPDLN
Design: key: below the threshold = too weak to quantify, mostly under pKd 3.1 to 4

Binder	pKd
VKRNSKETVV [MARCHF3, Q86UD3]	below the threshold

What follows are binders tested against Inadl_4, Q8NI35 (assay: holdup assay). Details: plain residues with an end cap or a label only (N-terminal biotin on a linker: ado-ado).
Sequence of Inadl_4, Q8NI35 (Q8NI35 547-651): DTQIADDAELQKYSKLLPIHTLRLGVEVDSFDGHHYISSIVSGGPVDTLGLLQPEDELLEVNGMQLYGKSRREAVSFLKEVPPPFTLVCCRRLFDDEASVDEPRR
Design: key: below the threshold = too weak to quantify, mostly under pKd 3.1 to 4

Binder	pKd
VKRNSKETVV [MARCHF3, Q86UD3]	below the threshold

The binders below were run against LIMK2, P53671 (assay: holdup assay). Details: plain residues with an end cap or a label only (N-terminal biotin on a linker: ado-ado).
Sequence of LIMK2, P53671 (P53671 143-248): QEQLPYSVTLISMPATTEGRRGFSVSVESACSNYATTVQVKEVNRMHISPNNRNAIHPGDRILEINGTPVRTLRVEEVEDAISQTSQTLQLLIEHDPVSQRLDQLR
Design: key: below the threshold = too weak to quantify, mostly under pKd 3.1 to 4

Binder	pKd
VKRNSKETVV [MARCHF3, Q86UD3]	below the threshold

Each binder was assayed against T7, LIN7C, Q9NUP9 (assay: holdup assay). Details: plain residues with an end cap or a label only (N-terminal biotin on a linker: ado-ado).
Design: key: below the threshold = too weak to quantify, mostly under pKd 3.1 to 4

Binder	pKd
VKRNSKETVV [MARCHF3, Q86UD3]	3.95

These binders were tested against LNX1_1, Q8TBB1 (assay: holdup assay). Details: plain residues with an end cap or a label only (N-terminal biotin on a linker: ado-ado).
Sequence of LNX1_1, Q8TBB1 (Q8TBB1 261-371): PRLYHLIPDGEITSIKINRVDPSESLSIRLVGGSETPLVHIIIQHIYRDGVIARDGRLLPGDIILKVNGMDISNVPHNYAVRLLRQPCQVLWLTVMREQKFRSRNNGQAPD
Design: key: below the threshold = too weak to quantify, mostly under pKd 3.1 to 4

Binder	pKd
VKRNSKETVV [MARCHF3, Q86UD3]	below the threshold

The binders below were run against T8, LNX2_2, Q8N448 (assay: holdup assay). Details: plain residues with an end cap or a label only (N-terminal biotin on a linker: ado-ado).
Design: key: below the threshold = too weak to quantify, mostly under pKd 3.1 to 4

Binder	pKd
VKRNSKETVV [MARCHF3, Q86UD3]	5.2

The binders below were run against T9, LNX2_3, Q8N448 (assay: holdup assay). Details: plain residues with an end cap or a label only (N-terminal biotin on a linker: ado-ado).
Design: key: below the threshold = too weak to quantify, mostly under pKd 3.1 to 4

Binder	pKd
VKRNSKETVV [MARCHF3, Q86UD3]	below the threshold

What follows are binders tested against MAGI1_2, Q96QZ7 (assay: holdup assay). Details: plain residues with an end cap or a label only (N-terminal biotin on a linker: ado-ado).
Sequence of MAGI1_2, Q96QZ7 (Q96QZ7 456-580): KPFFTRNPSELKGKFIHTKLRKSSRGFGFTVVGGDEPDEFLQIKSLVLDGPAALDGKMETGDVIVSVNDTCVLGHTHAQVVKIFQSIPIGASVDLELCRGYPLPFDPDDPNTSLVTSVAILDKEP
Design: key: below the threshold = too weak to quantify, mostly under pKd 3.1 to 4

Binder	pKd
VKRNSKETVV [MARCHF3, Q86UD3]	4.6

The binders below were run against MAGI2_3, Q86UL8 (assay: holdup assay). Details: plain residues with an end cap or a label only (N-terminal biotin on a linker: ado-ado).
Sequence of MAGI2_3, Q86UL8 (Q86UL8 600-682): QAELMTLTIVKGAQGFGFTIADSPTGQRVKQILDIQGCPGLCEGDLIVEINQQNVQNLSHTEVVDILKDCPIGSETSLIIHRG
Design: key: below the threshold = too weak to quantify, mostly under pKd 3.1 to 4

Binder	pKd
VKRNSKETVV [MARCHF3, Q86UD3]	4.2

What follows are binders tested against T10, MPP2, Q14168 (assay: holdup assay). Details: plain residues with an end cap or a label only (N-terminal biotin on a linker: ado-ado).
Design: key: below the threshold = too weak to quantify, mostly under pKd 3.1 to 4

Binder	pKd
VKRNSKETVV [MARCHF3, Q86UD3]	below the threshold

Each binder was assayed against T11, NHERF3_1, Q5T2W1 (assay: holdup assay). Details: plain residues with an end cap or a label only (N-terminal biotin on a linker: ado-ado).
Design: key: below the threshold = too weak to quantify, mostly under pKd 3.1 to 4

Binder	pKd
VKRNSKETVV [MARCHF3, Q86UD3]	below the threshold

What follows are binders tested against NHERF4_1, Q86UT5-2 (assay: holdup assay). Details: plain residues with an end cap or a label only (N-terminal biotin on a linker: ado-ado).
Sequence of NHERF4_1, Q86UT5-2 (Q86UT5 other isoform, or with tags, fused parts or gaps): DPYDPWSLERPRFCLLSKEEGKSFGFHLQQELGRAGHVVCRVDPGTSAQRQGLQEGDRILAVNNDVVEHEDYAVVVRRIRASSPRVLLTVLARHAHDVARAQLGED
Design: key: below the threshold = too weak to quantify, mostly under pKd 3.1 to 4

Binder	pKd
VKRNSKETVV [MARCHF3, Q86UD3]	below the threshold

What follows are binders tested against T12, PTPN13_1, Q12923 (assay: holdup assay). Details: plain residues with an end cap or a label only (N-terminal biotin on a linker: ado-ado).
Design: key: below the threshold = too weak to quantify, mostly under pKd 3.1 to 4

Binder	pKd
VKRNSKETVV [MARCHF3, Q86UD3]	3.53

What follows are binders tested against PTPN3, P26045 (assay: holdup assay). Details: plain residues with an end cap or a label only (N-terminal biotin on a linker: ado-ado).
Sequence of PTPN3, P26045 (P26045 505-587): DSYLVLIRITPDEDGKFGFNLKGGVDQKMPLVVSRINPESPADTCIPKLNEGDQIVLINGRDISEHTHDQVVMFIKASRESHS
Design: key: below the threshold = too weak to quantify, mostly under pKd 3.1 to 4

Binder	pKd
VKRNSKETVV [MARCHF3, Q86UD3]	4.79

Each binder was assayed against SCRIB_2, Q14160 (assay: holdup assay). Details: plain residues with an end cap or a label only (N-terminal biotin on a linker: ado-ado).
Sequence of SCRIB_2, Q14160 (Q14160 857-960): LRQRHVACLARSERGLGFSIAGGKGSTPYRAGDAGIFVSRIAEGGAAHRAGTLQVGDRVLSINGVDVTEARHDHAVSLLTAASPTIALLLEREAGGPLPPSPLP
Design: key: below the threshold = too weak to quantify, mostly under pKd 3.1 to 4

Binder	pKd
VKRNSKETVV [MARCHF3, Q86UD3]	3.89

These binders were tested against SCRIB_3, Q14160 (assay: holdup assay). Details: plain residues with an end cap or a label only (N-terminal biotin on a linker: ado-ado).
Sequence of SCRIB_3, Q14160 (Q14160 999-1103): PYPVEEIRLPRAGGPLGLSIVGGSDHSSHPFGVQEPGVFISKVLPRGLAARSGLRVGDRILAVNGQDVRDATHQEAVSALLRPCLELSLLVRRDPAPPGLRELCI
Design: key: below the threshold = too weak to quantify, mostly under pKd 3.1 to 4

Binder	pKd
VKRNSKETVV [MARCHF3, Q86UD3]	4.51

The binders below were run against TJP2_1, Q9UDY2 (assay: holdup assay). Details: plain residues with an end cap or a label only (N-terminal biotin on a linker: ado-ado).
Sequence of TJP2_1, Q9UDY2 (Q9UDY2 24-128): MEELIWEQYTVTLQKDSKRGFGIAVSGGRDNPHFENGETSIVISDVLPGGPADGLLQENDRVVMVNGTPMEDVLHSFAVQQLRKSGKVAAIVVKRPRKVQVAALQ
Design: key: below the threshold = too weak to quantify, mostly under pKd 3.1 to 4

Binder	pKd
VKRNSKETVV [MARCHF3, Q86UD3]	3.8
